Results reported in patent publication US20220362330A1, “Compositions and Methods for Increasing Epithelial Barrier Function” (The Board of Trustees of the Leland Stanford Junior …, priority 2019, published 2022).
Entries after “also recorded” stand apart in the source; their conditions may differ. Square brackets hold non-standard residues; d marks the D form. Ends that are not written are not given here. Ahx = NCCCCCC(=O)O

Legend:
[1] = tested on: vaginal epithelium; experiment: Vaginal epithelial integrity and thickness in OVX mice, histology; assay type: in vivo; details: ivag for 9 consecutive days, peptide dimer 10^−4 μM, Fc-EFNA3 1 μM
Procedure: Mice in estrus and OVX mice were used in these experiments. OVX mice received PBS alone, EFNA3-derived peptide dimer (10^−4 μM) or recombinant mouse Fc-EFNA3 (1 μM) via atraumatic intravaginal administration for 9 consecutive days. All mice were euthanized, and vaginal tissue processed for histological evaluation and measurement of vaginal epithelial thickness.
8-10 weeks female C57BL/6J mice were anesthetized. Dorsal skin was shaved and cleaned with 70% ethanol followed by povidone-iodine. Following appropriate sterile technique, a single dorsal skin incision was performed, followed by dissection until ovarian fat pads were identified and ovaries removed. Peritoneal and abdominal walls were sutured, and mice recovered from anesthesia. After confirmation of suppression of estrous cycle, mice were used in experiments.

[2] = tested on: desmoglein-1a (DSG1a); experiment: qRT-PCR of Dsg1a gene expression in vaginal tissue; assay type: in vivo, mice
Procedure: (§1) To define progestin-mediated changes in mucosal permeability, vaginal tissue from mice in estrus, diestrus, or after DMPA or LNG treatment was used to measure expression of the desmosomal cadherins desmoglein-1a (DSG1a) and desmocollin-1 (DSC1).
(§2) Human ectocervical and murine vaginal tissues were immediately immersed in 1 mL of RNAlater® (Qiagen), stored for 24 h at 4° C., and stored long-term at −80° C. RNA isolated using the RNeasy Lipid Tissue Kit (Qiagen) using manufacturer's instructions was re-suspended in nuclease-free water and quantified using a NanoDrop spectrophotometer (Thermo Scientific). The following mouse primers were utilized: desmocollin 1 (Mm00496525_ml), desmoglein-1α (Mm00809994_s1), ephrinA3 (Mm01212723_g1) and pyruvate carboxylase (Mm00500992_ml) as housekeeping reference gene (all from Thermo Scientific). These human primers were used: desmoglein-1 (Hs00355084_m1) and glucose-6-phosphate isomerase (Hs00976711_m1) as a housekeeping reference gene. To define relative gene expression, 100 ng of RNA was mixed with TaqMan® RNA-to-Ct™ 1-Step Kit and adequate primer (final volume of 10 μL/well) using manufacturer's instructions (Life Technologies). qRT-PCR was performed using a Quantstudio3 Thermal Cycler, and data analyzed via Quanstudio Software (Applied Biosystems).

[3] = tested on: VK2/E6E7 vaginal cells; experiment: DSG1 gene expression in human vaginal epithelial cell line; assay type: cell-based; details: 24 h, qRT-PCR
Procedure: VK2/E6E7 vaginal cells at 70-90% confluency were treated with indicated concentrations of EFNA3-derived peptide dimer for 24 h. Cells were harvested for RNA isolation and determination of relative DSG1 gene expression via qRT-PCR and ΔΔCt analysis.
VK2/E6E7 (ATCC® CRL-2616™) vaginal epithelial cell line was grown using ReproLife™ Reproductive Medium Complete Kit for up to 4 passages. For experiments, 10^5 cells were plated in 12-well plates. Cells reached 70-90% confluency after 24 hand were stimulated with EFNA3-like peptide dimer or vehicle. Cells were incubated for 24 h with indicated treatments. RNA was extracted and 500 ng of RNA used to generate cDNA using the SuperScript™ IV VILO™ Master Mix. Relative DSG1 (Hs00355084_m1) gene expression was calculated by normalization with the housekeeping gene glucose-6-phosphate isomerase (Hs00976711_m1) via qRT-PCR.

[4] = tested on: HSV-2; experiment: Lethal genital HSV-2 infection; assay type: in vivo; details: DMPA-treated mice; 10^4 pfu of HSV-2
Procedure: Mice were sedated with xylazine (Lloyd Laboratories, Shenandoah Iowa) and ketamine hydrochloride (JHP Pharmaceuticals, LLC Rochester Mich.), and intravaginally infected with 10^4 plaque-forming units (pfu) of WT HSV-2 333 in 10 μL of RPMI. Mouse mortality was evaluated daily for 15 days.

[5] = tested on: DSG1 protein; experiment: DSG1 protein levels in vaginal tissue, immunofluorescent staining and confocal microscopy; assay type: in vivo, mice
Procedure: Excised mouse vaginas were formaldehyde fixed and paraffin embedded (FFPE), and 10 μm sections mounted on glass slides and de-paraffinized by sequential immersion in 100% xylene, 100% ethanol, 96% ethanol, and sterile DEPC-treated water. Antigen retrieval was performed using 10 mM sodium citrate buffer (pH 6.0) containing 0.05% Tween 20 (both Sigma-Aldrich) (20 minutes at 95° C.). After 3 PBS washes, sections were incubated overnight in 10% normal goat serum (Abcam, Cambridge Mass.) at 4° C., then incubated for 1 h at ambient temperate with rabbit anti-desmoglein-1 (clone EPR6766(B)) antibody, washed and incubated for 1 h with AlexaFluor® 488-labeled goat anti-rabbit IgG (antibodies from Abcam) (all antibodies were diluted in PBS with 1% BSA and 0.05% Tween 20). Sections were stained with DAPI and evaluated for levels of DSG1 protein (defined by calculating pixel numbers per 100 μm^2) using confocal microscopy and ImageJ software.

[6] = tested on: genital mucosal barrier; experiment: Murine tissue permeability assay, low molecular weight fluorescent molecules given intravaginally; assay type: in vivo, mice
Procedure: Effects of progestins on genital mucosal barrier permeability were evaluated by intravaginally (ivag) administering 457 Da and 70 KDa-sized fluorescent molecules to mice in estrus or diestrus-stage or after DMPA or LNG treatment. Mice were grouped as follows: untreated in estrus, untreated in diestrus, DMPA treated, or LNG treated. The mice were intravaginally administered a PBS solution containing Lucifer yellow (457 Da) and Texas-Red-conjugated dextran (70 KDa). Animals were euthanized 45 minutes later to assess vaginal tissue penetration of these molecules by confocal microscopy. […] Mucosal permeability was increased moderately by diestrus, but dramatically by DMPA or LNG. Conversely, permeability increases were negligible in estrus-stage mice and mice treated with MePRDL or DMPA and RU486. This indicates exogenous progestins increase genital mucosal permeability.
To evaluate mucosal permeability to low molecular weight molecules, indicated groups of mice were sedated, and 10 μL of a PBS solution containing 62.5 μg of dextran Texas-Red® (DR) (MW=70,000 Da) and 50 μg of Lucifer yellow CH, lithium salt (LY) (MW=457.2 Da) (both from Life Technologies) administered intravaginally. 45 minutes later, mice were euthanized, and excised vaginal tissue fixed in formaldehyde. Fixed tissue was embedded in agarose, and 200-300 μm specimens were sectioned with a vibratome. After counterstaining with 4,6-diamidino-2-phenylindole (DAPI), confocal microscopy images were acquired by sequential scanning to prevent fluorescence crossover.

[7] = tested on: anti-OVA IgE; experiment: Mouse epicutaneous sensitization model of atopic dermatitis, serum anti-OVA IgE ELISA; assay type: in vivo, mice; details: 3 cycles, OVA + Fc-EFNA3 vs OVA alone
Procedure: Mice underwent epicutaneous sensitization with OVA alone or in combination with recombinant mouse Fc-EFNA3. After 3 sensitization cycles, animals were euthanized to obtain blood for serum isolation. Then, levels of serum anti-OVA IgE was determined via ELISA.
6-10 weeks old Balb/cJ mice were anesthetized. Dorsal skin was shaved, and skin tape-stripped 6 times. PBS alone, 100 μg of ovalbumin (OVA) in PBS or 100 μg OVA+recombinant mouse Fc-EFNA3 in 100 μl of PBS were added to a 1×1 cm sterile gauze that was applied directly to tape-stripped area of skin and covered with a transparent bio-occlusive dressing. This patch was left in place for a 1-week period and removed. This procedure was repeated twice with 2-week intervals between applications. After completing the 3rd skin sensitization, mice were euthanized and serum samples obtained. Serum levels of anti-OVA IgE were was determined using an in-house ELISA.

[8] = tested on: desmocollin-1 (DSC1); experiment: qRT-PCR of Dsc1 gene expression in vaginal tissue; assay type: in vivo, mice; details: DMPA-treated mice
Procedure: as §1, §2

| Molecule | vaginal epithelial integrity (epithelial thickness) [1] | potency on Dsg1a expression compared to recombinant mouse Fc-EFNA3 ([2]; DMPA-treated mice, Fc-EFNA3 at 1 μM) | Dsg1a mouse vaginal expression ([2]; DMPA-treated mice, topical/ivag in PBS, 24 hours) | expression of cell-cell adhesion molecules in genital mucosal epithelium ([2]; topical administration) | DSG1 gene expression [3] | survival after genital HSV-2 infection [4] | homogeneity of DSG1 protein expression ([5]; 1.5 ug in 30 uL of PBS vs 0.5 ug in 10 uL of PBS) | dose that optimized levels of DSG1 protein ([5]; DMPA-treated mice, 24 hours after treatment) | DSG1 expression at higher doses ([5]; DMPA-treated mice, 24 hours, doses above 1 μg) | DSG1 protein expression, dose dependence ([5]; DMPA-treated mice, 24 hours, up to the 1 μg dose) | genital mucosal barrier function / permeability to LMW fluorescent molecules ([6]; DMPA-treated mice, one ivag dose of 1.5 ug/30 uL) | genital mucosal barrier function (summary of the studies) ([6]; via increased expression of epithelial cell-cell adhesion molecules, especially DSG1) | dose that optimized Dsg1a gene expression ([2]; DMPA-treated mice, ivag 0.25, 0.5, 1 and 2.5 μg in 10 μL, six hours after treatment) | expression of Dsg1a ([2]; DMPA-treated mice, ivag, select doses vs Fc-control, 6 h) | serum allergen-specific (anti-OVA) IgE levels [7] | serum allergen-specific (anti-OVA) IgE levels ([7]; listed as recombinant mouse Fc-EFNA3) | dose that optimized Dsc1 gene expression ([8]; ivag 0.25, 0.5, 1 and 2.5 μg in 10 μL, six hours after treatment) | expression of Dsc1 ([8]; ivag, select doses vs Fc-control, 6 h) |
| --- | --- | --- | --- | --- | --- | --- | --- | --- | --- | --- | --- | --- | --- | --- | --- | --- | --- | --- |
| RYSAFSLGYEFH-Ahx-K-HFEYGLSFASYR (RYSAFSLGYEFH[Ahx]KHFEYGLSFASYR; also: Ahx-Lys linked dimer) [EFNA3-derived peptide dimer, Ahx is aminohexanoic acid] | improves vaginal epithelial integrity | greater potency | promotes Dsg1a mouse vaginal expression | significantly increases | increase DSG1 expression; also recorded: promotes DSG1 expression | – | – | – | – | – | – | – | – | – | – | – | – | – |
| Fc-EFNA3: Recombinant Mouse Ephrin-A3 Fc Chimera Protein, SEQ ID NO: 13 (protein) QGPGGALGNRHAVYWNSSNQHLRREGYTVQVNVNDYLDIYCPHYNSSGPGGGAEQYVLYMVNLSGYRTCNASQGSKRWECNRQHASHSPIKFSEKFQRYSAFSLGYEFHAGQEYYYISTPTHNLHWKCLRMKVFVCCASTSHSGEKPVPTLPQFTMGPNVKINVLEDFEGENPQVPKLEKSISGIEGRMDPAKTTAPSVYPLAPVCGDTTGSSVTLGCLVKGYFPEPVTLTWNSGSLSSGVHTFPAVLQSDLYTLSSSVTVTSSTWPSQSITCNVAHPASSTKVDKKIEPRGPTIKPCPPCKCPAPNLLGGPSVFIFPPKIKDVLMISLSPIVTCVVVDVSEDDPDVQISWFVNNVEVHTAQTQTHREDYNSTLRVVSALPIQHQDWMSGKEFKCKVNNKDLPAPIERTISKPKGSVRAPQVYVLPPPEEEMTKKQVTLTCMVTDFMPEDIYVEWTNNGKTELNYKNTEPVLDSDGSYFMYSKLRVEKKNWVERNSYSCSVVHEGLHNHHTTKSFSRTPGK | improves vaginal epithelial integrity | – | – | – | – | improves the survival | more homogeneous expression | 0.5 µg | reduced at higher doses | dose-dependent increase | decreased genital mucosal permeability | enhanced genital mucosal barrier function | 0.5 µg | increased expression | reduces allergen sensitization | decreased allergen-specific IgE levels | 0.5 µg | increased expression |
